In publication PMC4288179, “Synergic interplay of the La motif, RRM1 and the interdomain linker of LARP6 in the recognition of collagen mRNA expands the RNA binding repertoire of the La module”:

Experiments:
Experiment in all cases: ITC; ITC: 20 mM Tris pH 7.25, 100 mM KCl, 5 mM MgCl2, 1 mM DTT, 298 K; protein titrated into RNA
Details in all cases: protein: recombinant; tags: N-terminal His6 (TEV-cleavable); stem-loop with internal bulge
HsLARP6(70-300) R249A = target: T1, HsLARP6(70-300) R249A (Homo sapiens, UniProt Q9BRS8 70-300, R249A)
T1 sequence: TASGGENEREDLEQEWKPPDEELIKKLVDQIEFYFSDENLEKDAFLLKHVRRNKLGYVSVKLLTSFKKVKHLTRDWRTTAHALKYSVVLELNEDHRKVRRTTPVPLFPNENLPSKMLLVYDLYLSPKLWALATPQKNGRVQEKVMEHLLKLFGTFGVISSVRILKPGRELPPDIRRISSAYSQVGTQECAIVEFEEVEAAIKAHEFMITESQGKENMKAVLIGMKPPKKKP

HsLARP6(70-300) L187A = target: T2, HsLARP6(70-300) L187A (Homo sapiens, UniProt Q9BRS8 70-300, L187A)
T2 sequence: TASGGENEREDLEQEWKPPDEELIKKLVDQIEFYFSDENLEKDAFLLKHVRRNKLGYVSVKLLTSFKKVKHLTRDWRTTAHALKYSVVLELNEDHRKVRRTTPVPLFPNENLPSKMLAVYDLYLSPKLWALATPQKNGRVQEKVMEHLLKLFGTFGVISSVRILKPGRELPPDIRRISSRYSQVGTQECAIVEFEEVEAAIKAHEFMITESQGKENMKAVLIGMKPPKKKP

HsLARP6(70-300) F135A = target: T3, HsLARP6(70-300) F135A (Homo sapiens, UniProt Q9BRS8 70-300, F135A)
T3 sequence: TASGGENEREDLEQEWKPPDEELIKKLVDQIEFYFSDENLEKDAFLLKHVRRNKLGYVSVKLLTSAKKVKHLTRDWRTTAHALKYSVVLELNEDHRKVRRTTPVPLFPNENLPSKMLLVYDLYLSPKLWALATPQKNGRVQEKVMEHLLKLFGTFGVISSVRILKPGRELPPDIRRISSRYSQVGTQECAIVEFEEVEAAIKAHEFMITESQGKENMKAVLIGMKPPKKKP

HsLARP6(70-300) R237A = target: T4, HsLARP6(70-300) R237A (Homo sapiens, UniProt Q9BRS8 70-300, R237A)
T4 sequence: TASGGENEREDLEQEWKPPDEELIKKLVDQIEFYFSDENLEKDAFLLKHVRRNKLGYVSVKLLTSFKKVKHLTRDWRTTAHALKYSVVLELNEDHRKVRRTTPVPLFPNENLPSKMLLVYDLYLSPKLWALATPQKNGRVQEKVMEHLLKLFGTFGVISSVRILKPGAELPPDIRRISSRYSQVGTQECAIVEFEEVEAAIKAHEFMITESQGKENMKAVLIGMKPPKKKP

[1] = target: T5, HsLARP6(70-300) R244E/R245E/R249E (Homo sapiens, UniProt Q9BRS8 70-300, R244E;R245E;R249E)
T5 sequence: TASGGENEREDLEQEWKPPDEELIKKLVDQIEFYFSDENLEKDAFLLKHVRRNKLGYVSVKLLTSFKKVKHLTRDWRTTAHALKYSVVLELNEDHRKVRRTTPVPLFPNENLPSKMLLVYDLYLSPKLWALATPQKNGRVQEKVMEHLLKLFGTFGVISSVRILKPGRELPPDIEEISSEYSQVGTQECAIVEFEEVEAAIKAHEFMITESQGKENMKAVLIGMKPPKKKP

HsLARP6 LaM (70-183) = target: T6, HsLARP6 LaM (70-183) (Homo sapiens, UniProt Q9BRS8 70-183)
T6 sequence: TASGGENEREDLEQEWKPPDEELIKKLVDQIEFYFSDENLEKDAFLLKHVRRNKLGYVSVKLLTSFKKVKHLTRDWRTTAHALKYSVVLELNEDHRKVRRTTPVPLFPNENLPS

HsLARP6(70-300) R244A = target: T7, HsLARP6(70-300) R244A (Homo sapiens, UniProt Q9BRS8 70-300, R244A)
T7 sequence: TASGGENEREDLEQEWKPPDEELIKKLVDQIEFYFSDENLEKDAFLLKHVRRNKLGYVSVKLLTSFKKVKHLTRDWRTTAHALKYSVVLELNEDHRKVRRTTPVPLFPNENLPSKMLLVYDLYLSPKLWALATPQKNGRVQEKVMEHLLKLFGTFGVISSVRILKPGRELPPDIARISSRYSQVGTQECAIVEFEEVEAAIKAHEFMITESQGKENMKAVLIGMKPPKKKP

HsLARP6(70-300) W198A = target: T8, HsLARP6(70-300) W198A (Homo sapiens, UniProt Q9BRS8 70-300, W198A)
T8 sequence: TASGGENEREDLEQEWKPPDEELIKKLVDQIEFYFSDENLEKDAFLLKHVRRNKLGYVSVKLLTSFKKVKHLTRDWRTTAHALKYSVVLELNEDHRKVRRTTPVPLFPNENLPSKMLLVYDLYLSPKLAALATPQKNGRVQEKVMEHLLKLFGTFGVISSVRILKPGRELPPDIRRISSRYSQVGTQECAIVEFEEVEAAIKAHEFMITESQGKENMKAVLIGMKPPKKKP

B1: 48 nt RNA (collagen alpha1(I) 5' UTR SL) (structured_RNA)
RNA: CCACAAAGAGUCUACAUGUCUAGGGUCUAGACAUGUUCAGCUUUGUGG
HsLARP6(70-300) R249A
  Kd: 26 nM
HsLARP6(70-300) L187A
  Kd: 19 nM
HsLARP6(70-300) F135A
  binding result: no binding
HsLARP6(70-300) R237A
  Kd: 15 nM
[1]
  Kd: 27 nM
HsLARP6 LaM (70-183)
  binding result: no binding
HsLARP6(70-300) R244A
  Kd: 71 nM
HsLARP6(70-300) W198A
  Kd: 71 nM
